For 3 substances, Kd results are on record in US20190177716A1.

In general, Kd refers to a measure of binding affinity in units of concentration.

The target in test [1] is CD3ε of the TCR-CD3 complex expressed on Jurkat cells (T-cell Surface Glycoprotein CD3 Epsilon) (human) (UniProt P07766). Nature of the test: flow cytometry on Jurkat.E6 cells at 25 C, secondary goat anti-mouse IgG staining, one-site specific binding fit.
In test [2] the target is CD28 expressed on Jurkat.E6 cells (human) (UniProt P10747). The description is as above.

With “anti-CD3 monoclonal antibody clone UCHT1 (mouse anti-human, isotype IgG1, BioXCell Catalog# BE0231)”, the Kd in test [1] was determined as 1.4 nM.

Substance “anti-CD3 monoclonal antibody clone OKT3 (mouse anti-human, isotype IgG2a, BioXCell Catalog# BE0001-2)” showed a Kd in test [1] of 1.5 nM. The Kd values of the last two substances are within 1.5-fold of each other.

The substance “anti-CD28 monoclonal antibody (mouse anti-human, isotype IgG2a, Clone 9.3, BioXCell Catalog# BE0248)” showed a Kd in test [2] of 1.6 nM.
